Results on 7 compounds are retold here after patent publication US10344068B2, “Natriuretic polypeptides” (priority 2011, dated 2019).

Common to all, as to format: cell-based
Experiment [1] concerns Human cardiac fibroblasts. As to the kind of experiment: cGMP production in human cardiac fibroblasts (competitive RIA cGMP kit). As to conditions: human cardiac fibroblasts (CFs); 10^-6 M, 10^-8 M or 10^-10 M of NP or cANG for 10 minutes. As for the experimental part: cANG was custom-synthesized to have the sequence set forth in FIG. 4 and confirmed by high performance liquid chromatography and mass spectroscopy to have a molecular weight of 3080.6 Da. Human cardiac fibroblasts (CFs; ScienCell, San Diego, Calif.) were cultured in the manufacturer's fibroblast media (ScienCell, San Diego, Calif.) supplemented with fibroblast growth serum (FGS), fetal bovine serum (FBS), and Pen/Strep. Cells were treated at 80-90% confluency. Only cell passages 1 through 4 were used for experiments. To perform a cyclic GMP assay, the cells were treated as described previously (Huntley et al., J. Cell. Physiol., 209(3):943-9 (2006)). Briefly, cells were incubated in Hank's balanced salt solution (Invitrogen, Carlsbad, Calif.) containing 20 mmol/L N-[2-hydroxyethyl]piperazine-N′[2-ethanesulfonic acid], 0.1% bovine serum albumin, and 0.5 mmol/L 3-isobutyl-1-methylzanthine (Sigma, St. Louis, Mo.). Treated cells received 10^−6 M, 10^−8M, or 10^−10 M of NP or cANG for 10 minutes. Cells were lysed in 6% TCA and sonicated for 10 minutes. The samples were ether extracted four times in four volumes of ether, dried, and reconstituted in […] of cGMP assay buffer.
The samples were assayed using a competitive RIA cGMP kit (Perkin-Elmer, Boston, Mass.). Briefly, samples and standards were incubated with […] anti-human cGMP polyclonal antibody and I^125-antigen for 18 hours. Cyclic GMP assay buffer was added to the samples, and they were centrifuged for 20 minutes at 2500 rpm. The free fraction was aspirated off, and the bound fraction was counted and concentrations determined. Samples were corrected for dilution factors and protein concentration, and values were expressed as pmoles/mL.

A further experiment concerns the target T1, NPR-A (GC-A) (Homo sapiens, UniProt P16066).
T1 construct: expressed in transfected cells; host or cells: HEK 293
T1 sequence (P16066 33-1061): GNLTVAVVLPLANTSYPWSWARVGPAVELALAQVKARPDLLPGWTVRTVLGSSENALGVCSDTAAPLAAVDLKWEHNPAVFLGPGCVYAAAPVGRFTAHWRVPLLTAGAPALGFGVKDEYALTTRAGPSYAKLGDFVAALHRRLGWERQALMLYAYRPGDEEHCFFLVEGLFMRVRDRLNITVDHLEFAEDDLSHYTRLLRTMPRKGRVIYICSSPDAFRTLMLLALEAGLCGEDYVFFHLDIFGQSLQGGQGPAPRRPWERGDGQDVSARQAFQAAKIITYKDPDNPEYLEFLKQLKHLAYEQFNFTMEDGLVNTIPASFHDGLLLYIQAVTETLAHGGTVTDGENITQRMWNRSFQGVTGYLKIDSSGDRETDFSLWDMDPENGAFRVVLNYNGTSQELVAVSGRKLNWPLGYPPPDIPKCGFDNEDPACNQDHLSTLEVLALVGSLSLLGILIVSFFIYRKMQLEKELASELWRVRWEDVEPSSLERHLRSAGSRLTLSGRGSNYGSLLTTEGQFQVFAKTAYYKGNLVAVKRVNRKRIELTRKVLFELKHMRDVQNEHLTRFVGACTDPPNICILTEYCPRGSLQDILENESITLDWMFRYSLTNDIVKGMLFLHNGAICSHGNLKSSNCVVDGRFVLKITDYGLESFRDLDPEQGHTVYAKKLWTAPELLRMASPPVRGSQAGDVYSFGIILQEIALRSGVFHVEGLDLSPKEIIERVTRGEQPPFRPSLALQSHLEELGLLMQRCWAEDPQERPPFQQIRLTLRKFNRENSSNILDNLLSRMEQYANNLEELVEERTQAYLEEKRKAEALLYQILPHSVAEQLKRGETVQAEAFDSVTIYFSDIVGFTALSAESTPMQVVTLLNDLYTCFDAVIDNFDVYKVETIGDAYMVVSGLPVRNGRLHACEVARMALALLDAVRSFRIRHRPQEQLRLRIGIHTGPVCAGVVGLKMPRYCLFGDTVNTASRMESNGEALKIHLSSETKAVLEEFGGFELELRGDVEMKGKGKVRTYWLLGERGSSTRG
As to the kind of experiment: cGMP production in HEK 293 cells stably transfected to express NPR-A (GC-A). Particulars: NPR-A+ HEK 293 cells; 10^-10 M, 10^-8 M or 10^-6 M for 10 minutes. On the procedure: (§1) HEK 293 cells were stably transfected to express either NPR-A (GC-A) or NPR-B (GC-B) using Lipofectamine (Invitrogen, Grand Island, N.Y.). Transfected cells were maintained in Dulbecco's modified Eagle's medium supplemented with 10% fetal bovine serum, 100 U/mL penicillin, 100 U/mL streptomycin, and 250 μg/mL G418. The reagents were obtained from Invitrogen (Grand Island, N.Y.).
(§2) The following was performed to carry out cell stimulation and cGMP assays. Cells were plated in 6-well plates and treated as described elsewhere (Tsuruda et al., Circulation Research, 91:1127-1134 (2002)). Briefly, cells were incubated in Hank's balanced salt solution (Invitrogen, Carlsbad, Calif.) containing 20 mmol/L N-[2-hydroxyethyl]piperazine-N′[2-ethanesulfonic acid], 0.1% bovine serum albumin, and 0.5 mmol/L 3-isobutyl-1-methylzanthine (Sigma, St. Louis, Mo.). Treated cells received 10^−10 M, 10^−8M, or 10^−6 M of either BNP-Ang1-7 or Ang1-7BNP for 10 minutes. Cells were lysed in 300 μL 6% TCA and sonicated for 10 minutes. The samples were ether extracted four times in 4 volumes of ether, dried, and reconstituted in 500 μL cGMP assay buffer. The samples were assayed using a competitive RIA cGMP kit (Perkin-Elmer, Boston, Mass.) as described elsewhere (Steiner et al., J. Biol. Chem., 247:1106-1113 (1972)). Samples were corrected for dilution factors and protein concentration, and values were expressed as pmol cGMP/well. There was no cross-reactivity with ANP, BNP, CNP, and Endothelin-1, and less than 0.001 percent cross-reactivity with cAMP, GMP, GDP, ATP, and GTP.

For the next experiment, the target named is T2, NPR-B (GC-B) (Homo sapiens, UniProt P20594).
T2 construct: expressed in transfected cells; host or cells: HEK 293
T2 sequence (P20594 23-1047): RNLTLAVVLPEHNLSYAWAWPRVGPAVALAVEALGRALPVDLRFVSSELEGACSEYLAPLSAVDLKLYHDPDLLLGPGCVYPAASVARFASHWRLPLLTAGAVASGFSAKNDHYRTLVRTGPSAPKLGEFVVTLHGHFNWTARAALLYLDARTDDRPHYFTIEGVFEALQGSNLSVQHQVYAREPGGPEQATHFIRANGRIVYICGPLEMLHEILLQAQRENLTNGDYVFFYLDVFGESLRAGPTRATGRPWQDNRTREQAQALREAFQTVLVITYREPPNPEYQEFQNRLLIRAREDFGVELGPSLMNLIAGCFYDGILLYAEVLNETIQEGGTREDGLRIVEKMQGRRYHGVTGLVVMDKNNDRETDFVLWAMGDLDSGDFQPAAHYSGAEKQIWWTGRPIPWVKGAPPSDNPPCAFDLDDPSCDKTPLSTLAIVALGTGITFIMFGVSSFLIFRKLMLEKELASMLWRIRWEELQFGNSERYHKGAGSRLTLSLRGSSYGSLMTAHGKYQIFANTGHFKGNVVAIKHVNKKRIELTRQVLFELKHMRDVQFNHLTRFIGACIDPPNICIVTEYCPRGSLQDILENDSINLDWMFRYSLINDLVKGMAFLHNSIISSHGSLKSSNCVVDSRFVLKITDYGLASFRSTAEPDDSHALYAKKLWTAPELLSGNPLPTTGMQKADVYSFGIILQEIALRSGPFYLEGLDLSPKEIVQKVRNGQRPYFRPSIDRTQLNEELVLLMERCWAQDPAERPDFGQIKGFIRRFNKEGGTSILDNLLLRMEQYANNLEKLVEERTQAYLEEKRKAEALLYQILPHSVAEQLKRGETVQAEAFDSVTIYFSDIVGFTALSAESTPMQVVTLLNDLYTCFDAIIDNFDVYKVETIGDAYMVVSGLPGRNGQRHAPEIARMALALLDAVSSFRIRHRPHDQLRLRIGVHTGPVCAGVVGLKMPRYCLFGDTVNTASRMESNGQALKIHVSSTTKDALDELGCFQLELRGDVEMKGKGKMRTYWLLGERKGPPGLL
As to the kind of experiment: cGMP production in HEK 293 cells stably transfected to express NPR-B (GC-B). As to conditions: NPR-B+ HEK 293 cells; 10^-10 M, 10^-8 M or 10^-6 M for 10 minutes. As for the experimental part:
as §1, §2

Ends that are not written are not given here.

As for `CC[C@H](C)[C@@H]1NC(=O)[C@H](CCCNC(=N)N)NC(=O)[C@H](CC(=O)O)NC(=O)[C@H](CCSC)NC(=O)[C@H](CCCNC(=N)N)NC(=O)CNC(=O)CNC(=O)[C@H](Cc2ccccc2)NC(=O)[C@@H](NC(=O)[C@H](CO)NC(=O)[C@H](CO)NC(=O)[C@H](CCCNC(=N)N)NC(=O)[C@H](CCCNC(=N)N)NC(=O)[C@H](CC(C)C)NC(=O)[C@@H](N)CO)CSSC[C@@H](C(=O)N[C@@H](CC(N)=O)C(=O)N[C@@H](CO)C(=O)N[C@@H](Cc2ccccc2)C(=O)N[C@@H](CCCNC(=N)N)C(=O)N[C@@H](Cc2ccc(O)cc2)C(=O)O)NC(=O)CNC(=O)[C@H](CC(C)C)NC(=O)CNC(=O)[C@H](CO)NC(=O)[C@H](CCC(N)=O)NC(=O)[C@H](C)NC(=O)CNC1=O` [ANP, atrial natriuretic peptide], the cGMP production result in experiment [1] is “resulted in cGMP production”. “Ang1-7BNP: chimeric polypeptide containing an N-terminal Ang-(1-7) and a ring structure and C-terminus of BNP”: the results for the cGMP production entry with NPR-A (GC-A) and with NPR-B (GC-B) were “induced cGMP production” and “Neither BNP-Ang1-7 nor Ang1-7BNP induced cGMP production”, respectively. For B-type natriuretic peptide [BNP], the cGMP production result in experiment [1] was “resulted in cGMP production”; with NPR-A (GC-A), “induced cGMP production”; in the experiment with NPR-B (GC-B) it was “Minimal cGMP production”. “BNP-Ang1-7: chimeric polypeptide containing an N-terminus and ring structure of BNP and a C-terminal Ang-(1-7) (SPKMVQGSGCFGRKMDRISSSSGLGCDRVYIHP; not fully specified (bridges); cysteine pairing not given here)”: the cGMP production result is “induced cGMP production” with NPR-A (GC-A) and “Neither BNP-Ang1-7 nor Ang1-7BNP induced cGMP production” in the experiment with NPR-B (GC-B). In the case of “C-type natriuretic peptide (GLSKGCFGLKLDRIGSMSGLGC) [CNP]”, the cGMP production result in experiment [1] is listed as “resulted in cGMP production”.

As to angiotensin-(1-7) [Ang1-7], the cGMP production entry with NPR-A (GC-A) and with NPR-B (GC-B) was “did not induce cGMP production” in each case. “cANG: chimeric polypeptide containing an N-terminus and ring structure of CNP and a C-terminal Ang-(1-7) (GLSKGCFGLKLDRIGSMSGLGCDRVYIHP; not fully specified (bridges); cysteine pairing not given here)”: the cGMP production entry in experiment [1] is given as “resulted in cGMP production”.
